From publication PMC3514331, “Structure-function analysis of Methanobacterium thermoautotrophicum RNA ligase – engineering a thermostable ATP independent enzyme” (BMC Molecular Biology, 2012)

Substrate: Nc1ncnc2c1ncn2[C@@H]1O[C@H](COP(=O)(O)OP(=O)(O)OP(=O)(O)O)[C@@H](O)[C@H]1O
Experiment: purified protein
Format: biochemical, Methanothermobacter thermautotrophicus
Conditions: 10 mM Mg2+, 30 min, covalent enzyme-AMP formation, labelled compound

Protein | Km (10 mM bis-Tris propane pH 7.0, 65°C) | Km (10 mM bis-Tris propane pH 8.5, 65°C)
MthRnl (Methanobacterium thermoautotrophicum RNA ligase) (Methanothermobacter thermautotrophicus str. Delta H) (protein, full-length codon-optimized ORF, N-terminal His10 tag (pET16b), expressed in E. coli, tag cleavage not mentioned; homodimer, about 46 kDa per monomer (10 pmol = 460 ng)) MNSMNSDIPFDLIQERTGVPSSRLKVAFARGSLRLLESAGMQALLFKKPLGDLEAGTVIYLGDETEVIRGFPKIRRTLLLSPTIQEHFRDRVAVEEKMNGYNVRIACLSSGETVALTRGGHVCPFTTRKAQELLDLSEFFREHPDLVICGEMIGRDNPYVSQDYPEVGPLGFRVFDLREKNTNRPLPVEERRALLDSYGLPNVRLFGVYPIEEAASEVADIIRALGMAGREGVVMKDPSMEVPPLKYTSSQAHARELAYAFSYPFDFGRPFFFSRVIREGFQAYELDESDDETRERARRLGEAIIYPMLERIKSISAGEAAYEDTVIDVEDREAAEEFIRHLVRLGVSATLADYRDGRATIRRFYQSTTDRINNYLKGGLY | 0.9 µM | –
MthRnl (Methanobacterium thermoautotrophicum RNA ligase) (Methanothermobacter thermautotrophicus str. Delta H; K246A) (protein, full-length codon-optimized ORF, N-terminal His10 tag (pET16b), expressed in E. coli, tag cleavage not mentioned; homodimer, about 46 kDa per monomer (10 pmol = 460 ng)) MNSMNSDIPFDLIQERTGVPSSRLKVAFARGSLRLLESAGMQALLFKKPLGDLEAGTVIYLGDETEVIRGFPKIRRTLLLSPTIQEHFRDRVAVEEKMNGYNVRIACLSSGETVALTRGGHVCPFTTRKAQELLDLSEFFREHPDLVICGEMIGRDNPYVSQDYPEVGPLGFRVFDLREKNTNRPLPVEERRALLDSYGLPNVRLFGVYPIEEAASEVADIIRALGMAGREGVVMKDPSMEVPPLAYTSSQAHARELAYAFSYPFDFGRPFFFSRVIREGFQAYELDESDDETRERARRLGEAIIYPMLERIKSISAGEAAYEDTVIDVEDREAAEEFIRHLVRLGVSATLADYRDGRATIRRFYQSTTDRINNYLKGGLY | – | 60 µM
